Measured values: publication PMC4070910, “Cathepsin S Signals via PAR2 and Generates a Novel Tethered Ligand Receptor Agonist” (PLoS ONE, 2014)

Legend:
[1] = Specific activity of recombinant cathepsin S; format: biochemical; details: Z-VVR-AMC fluorimetric and Z-FR-pNA colorimetric assays
Experimental: Recombinant human cathepsin S was produced as follows. The human cathepsin S proprotein coding region was isolated by PCR using the forward and reverse primers […] CCTG and […] and a template of plasmid DNA containing the entire coding sequence of human cathepsin S. The PCR product was cut with Nco I and Xho I, and cloned into the pTYB4 expression vector from New England Biolabs for expression in E.coli. Cells were grown in LB medium induced with 0.3 mM IPTG, harvested by centrifugation, resuspended in lysis buffer A (0.5 M NaCl, 0.05 M Tris, 5 mM EDTA, pH 8.0) and lysed in a French press. The lysate was centrifuged and the protein was found predominantly in inclusion bodies which were dissolved in buffer B (10 mM DTT and 8 M urea), and refolded in the presence of buffer B containing 0.7 M L-arginine, 0.01 M glutathione, 0.001 M glutathione disulfide, and 0.005 M EDTA as described. The refolded procathepsin S was concentrated by Minimate Concentrator (Pall Corporation) and washed three times with buffer A. It was activated after adjusting to pH 4.5 with acetic acid, adding DTT to 5 µM and incubating at 37°C for 3 hours. […] The specific activity of cathepsin S was assayed using Z-VVR-AMC in fluorimetric and Z-FR-pNA in colorimetric assays[22] and determined to be 10,000 mU/mg protein.

[2] = system: human PAR2; assay: IP1 (IP-One HTRF) assay in PAR2-transfected HeLa cells; format: cell-based; details: 1 hour, 37°C, KVDGTS 100 µM, SLIGRL 10 µM, cathepsin S 1 µM
Experimental: To determine the effect of PAR2 activation on Gq stimulation, we measured IP1, a downstream metabolite of IP3, using the IP-One HTRF assay from Cis Bio, Medford, MA. HeLa cells were transfected with salmon sperm DNA or PAR2 cDNA as described above, plated in 10 cm culture dishes and incubated at 37°C with 5% CO2. After 24 hours, the cells were trypsinized, counted, plated into 96-well plates at 80,000 cells/well and incubated for another 24 hours. The medium was replaced with a stimulation buffer containing LiCl, per the instructions of the manufacturer. Ligands, including cathepsin S (1 µM), KVDGTS (100 µM) and SLIGRL (10 µM) were added to wells and incubated at 37°C for 1 hour and IP1 levels determined. This assay was performed on multiple wells containing each ligand on three occasions. Error bars represent SEM.

[3] = system: luciferase-PAR2M2 (glycine40 to alanine); assay: Gaussia luciferase release, luciferase-PAR2M2; format: cell-based, human; details: cathepsin S 2 µM, 10 minutes, room temperature, triplicate
Source text: Gaussia luciferase cDNA was cloned, without its termination codon, into pcDNA3.1(−) as an Xho I-EcoR I fragment. Human PAR2 cDNA and its mutants, M1, M2 and M3, were generated using PCR primers designed to start after the signal sequence and end with a termination codon: […] and […] . The PCR amplified cDNAs were cloned into EcoR I and Hind III sites C-terminal to Gaussia luciferase cDNA. The resulting plasmids were called pGLPAR2, pGLPAR2M1, pGLPAR2M2 and pGLPAR2M3.
The QuickChange site-directed mutagenesis procedure (Agilent Technologies, Santa Clara, CA) was used to generate PAR2 N-terminal mutants. PAR2M1, with a single amino acid change, was created by substituting the leucine^38 codon, CTT, with alanine, GCT, using the primers: PAR2M1F, […], and PAR2M1R, […]. […]
The plasmid DNAs pGLPAR2, pGLPAR2M1, pGLPAR2M2 and pGLPAR2M3 (10 µg of each) were transfected into 2×10^6 HeLa cells as described above and plated into 10 cm dishes. […] Cells were scraped in order to eliminate the use of trypsin, which could activate PARs, and allowed for the luminescence assay to be performed in a small volume. […] Luminescence assays were performed in triplicate on 50 µl of the supernatants according to the instructions of the manufacturer (New England Biolabs, Ipswich, MA).

B1: cathepsin S: Recombinant human cathepsin S, cysteine protease, expressed in E.coli, refolded and activated (protein, UniProt P25774 115-331, looked up)
Cathepsin S: LPDSVDWREKGCVTEVKYQGSCGACWAFSAVGALEAQLKLKTGKLVSLSAQNLVDCSTEKYGNKGCNGGFMTTAFQYIIDNKGIDSDASYPYKAMDQKCQYDSKYRAATCSKYTELPYGREDVLKEAVANKGPVSVGVDARHPSFFLYRSGVYYEPSCTQNVNHGVLVVGYGDLNGKEYWLVKNSWGHNFGEEGYIRMARNKGNHCGIASFPSYPEI
With B1 the specific activity [1] was 10,000 mU/mg protein, the IP1 level ([2]; KVDGTS and SLIGRL after subtracting baseline values, cathepsin S 'in this particular experiment') was 122 nM and the “IP1 generation (in words)” value ([2]; three occasions) was “consistently generated higher levels of IP1 than either SLIGRL or KVDGTS”. For the same molecule, the “receptor cleavage, luciferase luminescence (in words)” value [3] was “did not cleave PAR2M2 or PAR2M3”.
